This is an account of results in the supplement of paper PMC10567573.

This data set is described as follows: protein stability index of a GFP-peptide fusion (GPS, HEK-293T) (PSI 1-6); higher = more stable. As to conditions: c terminus: a fixed tail appended.

± gives the standard deviation.
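Further: 24-mer peptide tiles fused after GFP, lentivirally expressed, FACS-sorted into six equal bins by GFP/DsRed ratio, decoded by Illumina sequencing, PSI is the read-weighted mean bin number.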

In the case of FALGLGFGGVIAFSSYNKQDNNCH [SLC6A17], the protein stability index reads like this: (treatment: DMSO) 2.01 ± 0.4; (treatment: MLN4924 1 uM, 8 h) 2.44 ± 0.52.
Turning to AADGETTATEELEKTQDDLMKHQT [EPB41L3], the protein stability index amounted to 5.62 ± 0.14 (treatment: DMSO) and 5.64 ± 0.14 (treatment: MLN4924 1 uM, 8 h).
Take NMCLVATGGADAYYEMGIHCWDVA [IMPA1]: the protein stability index was determined as 2.13 ± 0.23 (treatment: DMSO) and 2.3 ± 0.18 (treatment: MLN4924 1 uM, 8 h).
As to QKLQEITRCKSSEEKKPGELKRLV [TRIM39], the protein stability index by setting is: (treatment: DMSO) 4.16 ± 0.37; (treatment: MLN4924 1 uM, 8 h) 4.21 ± 0.17.
For the sequence TASLIEDIDKKHLVLLRDGRTLIG [LSM1], the protein stability index came to 2.83 ± 0.15 (treatment: DMSO) and 2.62 ± 0.32 (treatment: MLN4924 1 uM, 8 h).
On the same counts, the results for LNELERLSNLVGKPSENHPLHNSG [MED27] are 4.06 ± 0.25 and 4.31 ± 0.24.
Consider YAYSNGIDYKTTTILLDGRRVRLE [RAB40C], for which the protein stability index (treatment: DMSO) came to 2.68 ± 0.3 and the protein stability index (treatment: MLN4924 1 uM, 8 h) was 2.56 ± 0.34.
With HTFNAHAATDITGFGILGHSQNLA [SEPHS2], the protein stability index reads like this: (treatment: DMSO) 3 ± 0.35; (treatment: MLN4924 1 uM, 8 h) 3.04 ± 0.24.
The like results for KAPSKLGLIISGPILQEGMDEEKL [DLC1] were, in that order, 4.47 ± 0.38 and 4.54 ± 0.36.
In the case of QDGSESFFFRHGHRGLLTMQLKSP [SPAG8], the protein stability index runs as follows: (treatment: DMSO) 2.96 ± 0.3; (treatment: MLN4924 1 uM, 8 h) 3.03 ± 0.35.
On to NYFSAMYSSEDSTLASVPPAATFG [ELF3], for which the protein stability index (treatment: DMSO) was determined as 3.06 ± 0.3 and the protein stability index (treatment: MLN4924 1 uM, 8 h) was found to be 3.17 ± 0.43.
The like results for LITIATFQIAANLSMERYALVFGV [SLC19A2] were, in that order, 3.02 ± 0.15 and 3.12 ± 0.59.
With KFAMYPPSMIATGSVGAAICGLQQ [CCND2], the protein stability index amounted to 2.4 ± 0.52 (treatment: DMSO) and 2.2 ± 0.4 (treatment: MLN4924 1 uM, 8 h).
The like results for TSRGGPWVGTGLAAALAGLVGLAT [CPOX] were, in that order, 1.89 ± 0.93 and 2.49 ± 0.087.
For the sequence LLEDMRASEAFHWDERGRAAAYSP [ANKRD9], the protein stability index runs as follows: (treatment: DMSO) 2.7 ± 0.44; (treatment: MLN4924 1 uM, 8 h) 3.18 ± 0.54.
On the same counts, the results for GDHERAIDFSPYLEPLGAPQAPAP [CEBPB] are 4.56 ± 0.16 and 4.55 ± 0.24.
For the sequence QAVCGKCSSKRSSYPVMGFEFQVR [WDFY1], the protein stability index is, setting by setting: (treatment: DMSO) 2.16 ± 0.23; (treatment: MLN4924 1 uM, 8 h) 2.34 ± 0.44.
As for NSGLINHQRIHTGEKPYECVQCGK [ZNF24], the protein stability index is, setting by setting: (treatment: DMSO) 3.92 ± 0.17; (treatment: MLN4924 1 uM, 8 h) 3.99 ± 0.31.
For VFSFDLHEPLSKERVEAFSDGVYA [TMEM175], the protein stability index came to 3.1 ± 0.24 (treatment: DMSO) and 3.24 ± 0.28 (treatment: MLN4924 1 uM, 8 h).
For the sequence PPTPGRPSLGPALSTGPRGLCAMP [VENTX], the protein stability index runs as follows: (treatment: DMSO) 3.86 ± 0.37; (treatment: MLN4924 1 uM, 8 h) 3.73 ± 0.26.
On the same counts, the results for ASGSFPSQVTATSGNGDFGDWSAF [CLINT1] are 3.4 ± 0.23 and 3.87 ± 0.12.
Take VPHNGSSEATLPAQMSTLHVSPPP [PDLIM4]: the protein stability index (treatment: DMSO) came to 4.87 ± 0.17 and the protein stability index (treatment: MLN4924 1 uM, 8 h) is 4.73 ± 0.19.
For the sequence KIESLMDEIEFLKKLHEEELRDLQ [PRPH], the protein stability index by setting is: (treatment: DMSO) 3.14 ± 0.23; (treatment: MLN4924 1 uM, 8 h) 3.61 ± 0.35.
On the same counts, the results for SESGADTISVNQTRVNLSSDTEST [DLC1] are 5.33 ± 0.4 and 5.3 ± 0.58.
Regarding RVLSPLHRGPSGHTEASAQRSHMG, the protein stability index by setting is: (treatment: DMSO) 4.1 ± 0.063; (treatment: MLN4924 1 uM, 8 h) 4.19 ± 0.16.
Take ISSTSTKRTYWPDLDAKIREALVL [PLD5]: the protein stability index reads like this: (treatment: DMSO) 2.38 ± 0.39; (treatment: MLN4924 1 uM, 8 h) 2.43 ± 0.49.
On the same counts, the results for FYLALYKQMSFLEKRGCPRTALEY [TCF25] are 2.66 ± 0.4 and 2.01 ± 0.4.
The like results for LKKPIKGKQAPRKKAQGKTQQNRK [KMT5A] were, in that order, 4.29 ± 0.2 and 4.45 ± 0.23.
The like results for ALLNDHIYVVGGFDGTAHLSSVEA [KLHL12] were, in that order, 2.68 ± 0.32 and 3 ± 0.38.
As for YGNGMRKSPEMPVILEVSLEGSHD [RTP4], the protein stability index reads like this: (treatment: DMSO) 3.58 ± 0.26; (treatment: MLN4924 1 uM, 8 h) 3.97 ± 0.41.
For the sequence VFQHGDNSFRLLFDVVVILTCSLS [MCOLN1], the protein stability index runs as follows: (treatment: DMSO) 3.25 ± 0.13; (treatment: MLN4924 1 uM, 8 h) 3.32 ± 0.21.
Take QEEEEDNRDSSMKLSFRARAYGFR [CHGA]: the protein stability index turned out to be 4.58 ± 0.13 (treatment: DMSO) and 4.62 ± 0.28 (treatment: MLN4924 1 uM, 8 h).
VKALEDFEDLCDRVFSDEDSELDN [FAM9B]: the protein stability index (treatment: DMSO) stood at 5.34 ± 0.26 and the protein stability index (treatment: MLN4924 1 uM, 8 h) was 5.28 ± 0.27.
For PWLRQDPMPLAPTRSHLWEAAQVV [TRIB3], the protein stability index is, setting by setting: (treatment: DMSO) 2.5 ± 0.18; (treatment: MLN4924 1 uM, 8 h) 2.27 ± 0.29.
On the same counts, the results for DLRVLVSNASEDTRRLRLAHVGME [SCARA5] are 2.9 ± 0.17 and 3.15 ± 0.11.
As to LHSQEDDDSSSESGSGNGSSTLNP [NOL4L], the protein stability index reads like this: (treatment: DMSO) 5.39 ± 0.2; (treatment: MLN4924 1 uM, 8 h) 5.48 ± 0.17.
On the same counts, the results for ECMLLVFGIDVKEVDPTGHSFVLV [MAGEA10] are 2.82 ± 0.44 and 2.8 ± 0.66.
The like results for TYKLKCKALQEENRDLRKASVTIQ [CCDC6] were, in that order, 3.64 ± 0.3 and 3.7 ± 0.21.
EKKKAHYRQSSFPHCSDLMPSGSE [KCNA4] returned a protein stability index (treatment: DMSO) of 4.2 ± 0.2 and a protein stability index (treatment: MLN4924 1 uM, 8 h) of 4.31 ± 0.17.
LRNTLKSTSEDSLVKQECIKEVVE [FAN1] came in with a protein stability index (treatment: DMSO) of 4.63 ± 0.3 and a protein stability index (treatment: MLN4924 1 uM, 8 h) of 5.01 ± 0.23.
On the same counts, the results for SEVEELNMSLTALREKLLEAEQSL [TEKT4] are 3.52 ± 0.35 and 3.87 ± 0.2.
Take SASEILYSAPPGDPLSTNYSLAPN [NFE2L1]: the protein stability index was 4.16 ± 0.29 (treatment: DMSO) and 4.12 ± 0.28 (treatment: MLN4924 1 uM, 8 h).
The sequence ISPGKNATGMEVGWYRPPFSRVVH [MOG] came in with a protein stability index (treatment: DMSO) of 2.45 ± 0.17 and a protein stability index (treatment: MLN4924 1 uM, 8 h) of 2.69 ± 0.23.
For NRIGNSGVEEIKGHPFFEGVDWEH [STK38L], the protein stability index is, setting by setting: (treatment: DMSO) 4.32 ± 0.26; (treatment: MLN4924 1 uM, 8 h) 4.45 ± 0.21.
The like results for LGTPTSSTPRPSITPTKKIELDRT [C2CD2L] were, in that order, 4.94 ± 0.18 and 4.88 ± 0.24.
Regarding RMSYQDPAQLSCLPYLEHVGHNHT [NFE2L1], the protein stability index runs as follows: (treatment: DMSO) 2.98 ± 0.2; (treatment: MLN4924 1 uM, 8 h) 3.12 ± 0.28.
PLVKKHCDDSFTPQEKLWQQLRRG [CPOX] had a protein stability index (treatment: DMSO) of 3.49 ± 0.21 and a protein stability index (treatment: MLN4924 1 uM, 8 h) of 3.57 ± 0.2.
On the same counts, the results for CTRFTDEYQLYEDIGKGAFSVVRR [CAMK2B] are 2.84 ± 0.35 and 2.85 ± 0.54.
The like results for MQLPPALCARLAAGPGAAEPLPVE [ZNF511] were, in that order, 3.97 ± 0.18 and 3.86 ± 0.11.
For IGPNVLMVHKRSHTGERPFQCNQC [IKZF1], the protein stability index is 2.93 ± 0.26 (treatment: DMSO) and 3.17 ± 0.43 (treatment: MLN4924 1 uM, 8 h).
On the same counts, the results for CAKLDSCALGDHGCEHSCVSSEDS [MATN2] are 4.91 ± 0.35 and 4.99 ± 0.38.
The like results for LLKITIPNAFIGSDVVDWLYHNVE [DVL3] were, in that order, 2.31 ± 0.63 and 2.26 ± 0.28.
On the same counts, the results for KARGKSGPLFNFDVHDDVRLLSDA [FAM50A] are 3.87 ± 0.15 and 3.81 ± 0.3.
AGFSPDCIMDDAINILQNEKSHQV [INTS4] showed a protein stability index (treatment: DMSO) of 4.13 ± 0.12 and a protein stability index (treatment: MLN4924 1 uM, 8 h) of 4.17 ± 0.18.
As for AATKQEGMEGLLGTLVQLLGSDDI [CTNNB1], the protein stability index reads like this: (treatment: DMSO) 2.63 ± 0.23; (treatment: MLN4924 1 uM, 8 h) 2.71 ± 0.58.
On the same counts, the results for RVGKWHQDFPVKKRKKLSTWKQEL [ZNF75A] are 2.7 ± 0.29 and 2.92 ± 0.4.
In the case of PNVLCSMSGKSPVESSLNVKTKKN [FBXO34], the protein stability index reads like this: (treatment: DMSO) 4.84 ± 0.29; (treatment: MLN4924 1 uM, 8 h) 4.9 ± 0.1.
The like results for GSSRPCLDFLQEVTRQPRNLQDLC [ASB7] were, in that order, 3.9 ± 0.31 and 3.97 ± 0.23.
Take AFVVYLETETLVTREAVTEILGIE [TSN]: the protein stability index reads like this: (treatment: DMSO) 2.58 ± 0.6; (treatment: MLN4924 1 uM, 8 h) 2.52 ± 0.7.
The like results for PNFVKDLEEDLYELFKKDPGFDRG [PI4K2A] were, in that order, 3.79 ± 0.081 and 3.72 ± 0.32.
As to SLSYTVLIVGRIAIGVSISLSSIA [SLC2A12], the protein stability index runs as follows: (treatment: DMSO) 3.02 ± 0.43; (treatment: MLN4924 1 uM, 8 h) 3.37 ± 0.23.
On the same counts, the results for GGNHFRGTSDYDDVLSCEYYSPIL [KLHL13] are 2.81 ± 0.096 and 2.77 ± 0.18.
As to VVMNLDSRLLIFPLYICCNFLYIS [GMCL1], the protein stability index was 2.59 ± 0.59 (treatment: DMSO) and 2.94 ± 0.36 (treatment: MLN4924 1 uM, 8 h).
Turning to GPAHGPAQEEPWEKKESLGAAQEA [ZNF232], the protein stability index was found to be 5.6 ± 0.22 (treatment: DMSO) and 5.49 ± 0.16 (treatment: MLN4924 1 uM, 8 h).
HHVPGGGNVKIDSQKLNFREHAKA [MAP2]: the protein stability index stood at 4.3 ± 0.43 (treatment: DMSO) and 4.4 ± 0.27 (treatment: MLN4924 1 uM, 8 h).
Take SDLSRRSSSTMSKSEYMEIEEDMN [KCNA1]: the protein stability index by setting is: (treatment: DMSO) 5.21 ± 0.33; (treatment: MLN4924 1 uM, 8 h) 5.38 ± 0.1.
With LGKTEQGFENMDFFTLDLEHIADA [TRIM63], the protein stability index reads like this: (treatment: DMSO) 3.85 ± 0.21; (treatment: MLN4924 1 uM, 8 h) 3.8 ± 0.12.
The like results for RFLANEVLQENYTHLPKADIFALA [WEE1] were, in that order, 2.27 ± 0.2 and 2.33 ± 0.41.
On the same counts, the results for VLLEEPLPLETARESPSFKLEPME [ZNF263] are 4.02 ± 0.24 and 4.284 ± 0.038.
ETPNSLNTTVIPNGSMAMGTVPGQ [LYSMD4]: the protein stability index was found to be 4.43 ± 0.19 (treatment: DMSO) and 4.42 ± 0.23 (treatment: MLN4924 1 uM, 8 h).
In the case of CIPATVRSSFANQGEICLCTSRIF [ALDH8A1], the protein stability index came to 2.28 ± 0.52 (treatment: DMSO) and 2.38 ± 0.21 (treatment: MLN4924 1 uM, 8 h).
The like results for LALLLCAGQVTALPVNSPMNKGDT [CHGA] were, in that order, 2.68 ± 0.83 and 2.59 ± 0.5.
